Source: IntAct's records for PubMed 29039417

B1: Isoform 2 of Bardet-Biedl syndrome 7 protein (Homo sapiens), Q8IWZ6-2 (parent)
chain: MDLILNRMDYLQVGVTSQKTMKLIPASRHRATQKVVIGDHDGVVMCFGMKKGEAAAVFKTLPGPKIARLELGGVINTPQEKIFIAAASEIRGFTKRGKQFLSFETNLTESIKAMHISGSDLFLSASYIYNHYCDCKDQHYYLSGDKINDVICLPVERLSRITPVLACQDRVLRVLQGSDVMYAVEVPGPPTVLALHNGNGGDSGEDLLFGTSDGKLALIQITTSKPVRKWEIQNEKKRGGILCIDSFDIVGDGVKDLLVGRDDGMVEVYSFDNANEPVLRFDQMLSESVTSIQGGCVGKDSYDEIVVSTYSGWVTGLTTEPIHKESGPGEELKINQEMQNKISSLRNELEHLQYKVLQERENYQQSSQSSKAKSAVPSFGINDKFTLNKDDASYSLILEVQTAIDNVLIQSDVPIDLLDVDKNSAVVSFSSCDSESNDNFLLATYRCQADTTRLELKIRSIEGQYGTLQAYVTPRIQPKTCQVRQYHIKPLSLHQRTHFIDHDRPMNTLTLTGQFSFAEVHSWVVFCLPEVPEKPPAGECVTFYFQNTFLDTQLESTYRKGEGVFKSDNISTISILKDVLSKEATKRKINLNISYEINEVSVKHTLKLIHPKLEYQLLLAKKVQLIDALKELQIHEGNTNFLIPEYHCILEEADHLQEEYKKQPAHLERLYG
partner: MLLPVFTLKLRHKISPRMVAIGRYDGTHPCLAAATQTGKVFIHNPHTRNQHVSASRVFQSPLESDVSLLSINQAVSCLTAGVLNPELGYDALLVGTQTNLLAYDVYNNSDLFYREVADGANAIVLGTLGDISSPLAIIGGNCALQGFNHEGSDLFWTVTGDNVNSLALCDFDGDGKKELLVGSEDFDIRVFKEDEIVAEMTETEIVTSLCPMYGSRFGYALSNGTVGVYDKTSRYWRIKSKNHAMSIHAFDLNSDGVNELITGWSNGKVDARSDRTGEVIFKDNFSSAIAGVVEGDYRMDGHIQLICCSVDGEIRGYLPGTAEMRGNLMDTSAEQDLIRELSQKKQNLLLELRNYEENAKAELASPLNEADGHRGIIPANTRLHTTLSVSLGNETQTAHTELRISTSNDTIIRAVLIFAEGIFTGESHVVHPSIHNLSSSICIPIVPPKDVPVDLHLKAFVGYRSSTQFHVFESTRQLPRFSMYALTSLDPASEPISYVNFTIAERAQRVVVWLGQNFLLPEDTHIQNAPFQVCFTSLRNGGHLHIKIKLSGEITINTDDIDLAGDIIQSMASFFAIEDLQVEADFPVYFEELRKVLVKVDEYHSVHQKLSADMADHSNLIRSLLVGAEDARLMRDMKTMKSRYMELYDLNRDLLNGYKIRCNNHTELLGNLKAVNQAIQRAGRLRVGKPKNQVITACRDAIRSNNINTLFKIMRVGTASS

Variants of: B1
Conditions: with bbs2_human BBS2, Q9BXC9

Row | effect of a mutation on the interaction | Variant
1 | with no effect | S574K
2 | with no effect | N507A
3 | with no effect | P664K
4 | with no effect | M506E
5 | with no effect | V420K
6 | with no effect | G329A
7 | with no effect | A584E
8 | with no effect | Q477K
9 | with no effect | Q410K
10 | with no effect | V413A
11 | with no effect | H521A
12 | with no effect | P644K
13 | with no effect | S431K
14 | with no effect | V407A
15 | disrupting interaction strength | Q624L
16 | with no effect | K607E
17 | with no effect | V376K
18 | with no effect | Y660A
19 | with no effect | S326K

Row | effect of a mutation on the interaction | Variant
20 | with no effect | S366E
21 | with no effect | Y595A
22 | with no effect | T402E
23 | with no effect | E350A
24 | with no effect | K662A
25 | with no effect | E652A
26 | with no effect | V564A
27 | with no effect | R459A
28 | with no effect | A425K
29 | with no effect | L332A
30 | with no effect | S436K
31 | with no effect | S428A
32 | with no effect | N437A
33 | with no effect | S369A
34 | with no effect | E359A
35 | with no effect | P529K
36 | with no effect | K384E
37 | with no effect | L632A
38 | with no effect | S601K

Row | effect of a mutation on the interaction | Variant
39 | with no effect | K612A
40 | with no effect | M338E
41 | with no effect | Q616A
42 | with no effect | S516A
43 | with no effect | E668K
44 | with no effect | C481A
45 | with no effect | F565E
46 | with no effect | I488A
47 | with no effect | T444E
48 | with no effect | H666A
49 | with no effect | D416E
50 | with no effect | G637K
51 | with no effect | D501E
52 | with no effect | D412A
53 | with no effect | V531K
54 | with no effect | K333A
55 | with no effect | V600K
56 | with no effect | T508K
57 | with no effect | T467E

Further lines, the variant ahead of its results:

Row | Variant | effect of a mutation on the interaction
58 | H494E | with no effect
59 | D578K | with no effect
60 | F429E | with no effect
61 | Y394E | with no effect
62 | Y394A | with no effect
63 | S522E | disrupting interaction strength
64 | S522A | with no effect
65 | G561R | disrupting interaction strength
66 | L606K | with no effect
67 | S434K | with no effect
68 | S434E | with no effect
69 | L629A | with no effect
70 | D390E | with no effect
71 | G672A | with no effect
72 | L617K | with no effect
73 | N335E | with no effect
74 | S370E | with no effect
75 | Q663K | with no effect
76 | I643K | with no effect
77 | P535E | with no effect
78 | P535K | with no effect
79 | F515E | with no effect
80 | S374K | with no effect
81 | E361K | with no effect
82 | D421K | with no effect
83 | S393E | with no effect

Row | Variant | effect of a mutation on the interaction
84 | S393A | with no effect
85 | S431A | with no effect
86 | Q624K | with no effect
87 | Q482E | with no effect
88 | F549K | with no effect
89 | F549E | with no effect
90 | T605A | with no effect
91 | Y486A | with no effect
92 | Y486E | with no effect
93 | Y486K | with no effect
94 | R669K | with no effect
95 | A392E | with no effect
96 | V376I | disrupting interaction strength
97 | L511E | with no effect
98 | I649K | with no effect
99 | T480E | with no effect
100 | N598K | with no effect
101 | Q339E | with no effect
102 | V427E | with no effect
103 | R484A | with no effect
104 | R484E | with no effect
105 | Q633A | with no effect
106 | Y595E | with no effect
107 | Y595K | with no effect
108 | T402K | with no effect
109 | T402A | with no effect

Row | Variant | effect of a mutation on the interaction
110 | S492A | with no effect
111 | Q358K | with no effect
112 | K489E | with no effect
113 | H498K | with no effect
114 | P532K | with no effect
115 | P490K | with no effect
116 | K588A | with no effect
117 | E652K | with no effect
118 | H655A | with no effect
119 | D438A | with no effect
120 | D438K | with no effect
121 | E330K | with no effect
122 | R459E | with no effect
123 | L576E | with no effect
124 | S428E | with no effect
125 | F543A | with no effect
126 | E596A | with no effect
127 | I461A | with no effect
128 | N406A | with no effect
129 | G563R | disrupting interaction strength
130 | G563E | with no effect
131 | Y465E | with no effect
132 | T512K | with no effect
133 | D654A | with no effect
134 | N347E | with no effect
135 | S344E | with no effect

Row | Variant | effect of a mutation on the interaction
136 | L632K | with no effect
137 | D551E | with no effect
138 | D551A | with no effect
139 | N423E | with no effect
140 | K612E | with no effect
141 | L345K | with no effect
142 | M338A | with no effect
143 | F440K | with no effect
144 | N592K | with no effect
145 | T473A | with no effect
146 | I626K | with no effect
147 | V356K | with no effect
148 | S556K | with no effect
149 | Q553K | with no effect
150 | R475E | with no effect
151 | D627A | with no effect
152 | E462K | with no effect
153 | G463E | with no effect
154 | G463A | with no effect
155 | V520K | with no effect
156 | N439K | with no effect
157 | L493P | disrupting interaction strength
158 | V524A | with no effect
159 | A470E | with no effect
160 | I397E | with no effect
161 | D433E | with no effect

Row | Variant | effect of a mutation on the interaction
162 | D433K | with no effect
163 | I634A | with no effect
164 | L352A | with no effect
165 | L442E | with no effect
166 | D416A | with no effect
167 | L456E | with no effect
168 | F379A | with no effect
169 | V525K | with no effect
170 | A449E | with no effect
171 | A449T | disrupting interaction strength
172 | T451A | with no effect
173 | Q336E | with no effect
174 | L554K | with no effect
175 | T510E | with no effect
176 | D501K | with no effect
177 | D412E | with no effect
178 | V579E | with no effect
179 | K577E | with no effect
180 | Q368E | with no effect
181 | I334K | with no effect
182 | G513S | disrupting interaction strength
183 | E455A | with no effect
184 | L417K | with no effect
